Assay results published in the Human Domainome abundance scans (Beltran et al. 2025).
± gives the uncertainty stated by the source.

B1: Dystrobrevin alpha, residues 235 to 294; numbered along this chain, Q9Y4J8 (parent)
chain: ENVFHPVECSYCHSESMMGFRYRCQQCHNYQLCQDCFWRGHAGGSHSNQHQMKEYTSWKS

Variants of: B1
Test: abundance fitness (aPCA) (normalised: wild type 0, dead -1); higher = more abundant; growth selection in yeast, the domain comes from the species named
Details: Homo sapiens

| Variant | abundance fitness |
| --- | --- |
| ENVFHPVEPSYCHSESMMGFRYRCQQCHNYQLCQDCFWRGHAGGSHSNQHQMKEYTSWKS [C9P] | -0.969 ± 0.15 |
| ENVFHPVEASYCHSESMMGFRYRCQQCHNYQLCQDCFWRGHAGGSHSNQHQMKEYTSWKS [C9A] | -1.12 ± 0.14 |
| ENVFHPVEVSYCHSESMMGFRYRCQQCHNYQLCQDCFWRGHAGGSHSNQHQMKEYTSWKS [C9V] | -1.1 ± 0.093 |
| ENVFHPVEHSYCHSESMMGFRYRCQQCHNYQLCQDCFWRGHAGGSHSNQHQMKEYTSWKS [C9H] | -1.26 ± 0.2 |
| ENVFHPVEGSYCHSESMMGFRYRCQQCHNYQLCQDCFWRGHAGGSHSNQHQMKEYTSWKS [C9G] | -0.93 ± 0.098 |
| ENVFHPVEQSYCHSESMMGFRYRCQQCHNYQLCQDCFWRGHAGGSHSNQHQMKEYTSWKS [C9Q] | -1.05 ± 0.12 |
| ENVFHPVEDSYCHSESMMGFRYRCQQCHNYQLCQDCFWRGHAGGSHSNQHQMKEYTSWKS [C9D] | -0.904 ± 0.13 |
| ENVFHPVEISYCHSESMMGFRYRCQQCHNYQLCQDCFWRGHAGGSHSNQHQMKEYTSWKS [C9I] | -1.19 ± 0.23 |
| ENVFHPVEWSYCHSESMMGFRYRCQQCHNYQLCQDCFWRGHAGGSHSNQHQMKEYTSWKS [C9W] | -1.23 ± 0.17 |
| ENVFHPVEKSYCHSESMMGFRYRCQQCHNYQLCQDCFWRGHAGGSHSNQHQMKEYTSWKS [C9K] | -0.901 ± 0.21 |
| ENVFHPVEESYCHSESMMGFRYRCQQCHNYQLCQDCFWRGHAGGSHSNQHQMKEYTSWKS [C9E] | -0.908 ± 0.12 |
| ENVFHPVECSTCHSESMMGFRYRCQQCHNYQLCQDCFWRGHAGGSHSNQHQMKEYTSWKS [Y11T] | -0.201 ± 0.079 |
| ENVFHPVECSSCHSESMMGFRYRCQQCHNYQLCQDCFWRGHAGGSHSNQHQMKEYTSWKS [Y11S] | -0.219 ± 0.061 |
| ENVFHPVECSFCHSESMMGFRYRCQQCHNYQLCQDCFWRGHAGGSHSNQHQMKEYTSWKS [Y11F] | 0.039 ± 0.068 |
| ENVFHPVECSCCHSESMMGFRYRCQQCHNYQLCQDCFWRGHAGGSHSNQHQMKEYTSWKS [Y11C] | -0.247 ± 0.073 |
| ENVFHPVECSGCHSESMMGFRYRCQQCHNYQLCQDCFWRGHAGGSHSNQHQMKEYTSWKS [Y11G] | -0.099 ± 0.052 |
| ENVFHPVECSACHSESMMGFRYRCQQCHNYQLCQDCFWRGHAGGSHSNQHQMKEYTSWKS [Y11A] | -0.208 ± 0.076 |
| ENVFHPVECSWCHSESMMGFRYRCQQCHNYQLCQDCFWRGHAGGSHSNQHQMKEYTSWKS [Y11W] | -0.155 ± 0.067 |
| ENVFHPVECSVCHSESMMGFRYRCQQCHNYQLCQDCFWRGHAGGSHSNQHQMKEYTSWKS [Y11V] | -0.193 ± 0.052 |
| ENVFHPVECSPCHSESMMGFRYRCQQCHNYQLCQDCFWRGHAGGSHSNQHQMKEYTSWKS [Y11P] | -0.658 ± 0.14 |
| ENVFHPVECSQCHSESMMGFRYRCQQCHNYQLCQDCFWRGHAGGSHSNQHQMKEYTSWKS [Y11Q] | -0.223 ± 0.1 |
| ENVFHPVECSNCHSESMMGFRYRCQQCHNYQLCQDCFWRGHAGGSHSNQHQMKEYTSWKS [Y11N] | -0.256 ± 0.071 |
| ENVFHPVECSICHSESMMGFRYRCQQCHNYQLCQDCFWRGHAGGSHSNQHQMKEYTSWKS [Y11I] | -0.191 ± 0.095 |

| Variant | abundance fitness |
| --- | --- |
| ENVFHPVECSMCHSESMMGFRYRCQQCHNYQLCQDCFWRGHAGGSHSNQHQMKEYTSWKS [Y11M] | -0.055 ± 0.071 |
| ENVFHPVECSDCHSESMMGFRYRCQQCHNYQLCQDCFWRGHAGGSHSNQHQMKEYTSWKS [Y11D] | -0.313 ± 0.084 |
| ENVFHPVECSRCHSESMMGFRYRCQQCHNYQLCQDCFWRGHAGGSHSNQHQMKEYTSWKS [Y11R] | -0.37 ± 0.055 |
| ENVFHPVECSYCASESMMGFRYRCQQCHNYQLCQDCFWRGHAGGSHSNQHQMKEYTSWKS [H13A] | -0.107 ± 0.058 |
| ENVFHPVVCSYCHSESMMGFRYRCQQCHNYQLCQDCFWRGHAGGSHSNQHQMKEYTSWKS [E8V] | -0.329 ± 0.064 |
| ENVFHPVICSYCHSESMMGFRYRCQQCHNYQLCQDCFWRGHAGGSHSNQHQMKEYTSWKS [E8I] | -0.104 ± 0.089 |
| ENVFHPVKCSYCHSESMMGFRYRCQQCHNYQLCQDCFWRGHAGGSHSNQHQMKEYTSWKS [E8K] | -0.214 ± 0.064 |
| ENVFHPVRCSYCHSESMMGFRYRCQQCHNYQLCQDCFWRGHAGGSHSNQHQMKEYTSWKS [E8R] | -0.222 ± 0.047 |
| ENVFHPVHCSYCHSESMMGFRYRCQQCHNYQLCQDCFWRGHAGGSHSNQHQMKEYTSWKS [E8H] | -0.049 ± 0.12 |
| ENVFHPVGCSYCHSESMMGFRYRCQQCHNYQLCQDCFWRGHAGGSHSNQHQMKEYTSWKS [E8G] | 0.051 ± 0.06 |
| ENVFHPVMCSYCHSESMMGFRYRCQQCHNYQLCQDCFWRGHAGGSHSNQHQMKEYTSWKS [E8M] | -0.35 ± 0.074 |
| ENVFHPVACSYCHSESMMGFRYRCQQCHNYQLCQDCFWRGHAGGSHSNQHQMKEYTSWKS [E8A] | -0.365 ± 0.07 |
| ENVFHPVFCSYCHSESMMGFRYRCQQCHNYQLCQDCFWRGHAGGSHSNQHQMKEYTSWKS [E8F] | -0.13 ± 0.084 |
| ENVFHPVWCSYCHSESMMGFRYRCQQCHNYQLCQDCFWRGHAGGSHSNQHQMKEYTSWKS [E8W] | -0.39 ± 0.073 |
| ENVFHPVSCSYCHSESMMGFRYRCQQCHNYQLCQDCFWRGHAGGSHSNQHQMKEYTSWKS [E8S] | -0.124 ± 0.053 |
| ENVFHPVLCSYCHSESMMGFRYRCQQCHNYQLCQDCFWRGHAGGSHSNQHQMKEYTSWKS [E8L] | -0.233 ± 0.047 |
| ENVFHPVNCSYCHSESMMGFRYRCQQCHNYQLCQDCFWRGHAGGSHSNQHQMKEYTSWKS [E8N] | -0.17 ± 0.11 |
| ENVFHPVYCSYCHSESMMGFRYRCQQCHNYQLCQDCFWRGHAGGSHSNQHQMKEYTSWKS [E8Y] | -0.157 ± 0.075 |
| ENVFHPVQCSYCHSESMMGFRYRCQQCHNYQLCQDCFWRGHAGGSHSNQHQMKEYTSWKS [E8Q] | -0.155 ± 0.066 |
| ENVFHPVTCSYCHSESMMGFRYRCQQCHNYQLCQDCFWRGHAGGSHSNQHQMKEYTSWKS [E8T] | -0.234 ± 0.061 |
| ENVFHPVDCSYCHSESMMGFRYRCQQCHNYQLCQDCFWRGHAGGSHSNQHQMKEYTSWKS [E8D] | -0.206 ± 0.13 |
| ENVFHPVPCSYCHSESMMGFRYRCQQCHNYQLCQDCFWRGHAGGSHSNQHQMKEYTSWKS [E8P] | -0.001 ± 0.051 |
